Experimental data as given in the Human Domainome abundance scans (Beltran et al. 2025).
± gives the uncertainty stated by the source.

B1: Zinc finger homeobox protein 3, residues 2643 to 2698; numbered along this chain, Q15911 (parent)
chain: RLRTTITPEQLEILYQKYLLDSNPTRKMLDHIAHEVGLKKRVVQVWFQNTRARERK

Variants of: B1
Assay: abundance fitness (aPCA) (normalised: wild type 0, dead -1); higher = more abundant; growth selection in yeast, the domain comes from the species named
Settings: Homo sapiens

| Variant | abundance fitness |
| --- | --- |
| L14M | -0.17 ± 0.11 |
| L14N | -1.14 ± 0.24 |
| W46R | -0.678 ± 0.094 |
| W46F | -0.462 ± 0.3 |
| W46D | -0.815 ± 0.2 |
| Y18M | -0.373 ± 0.14 |
| Y18C | -0.696 ± 0.13 |
| Y18K | -0.662 ± 0.22 |
| R53H | -0.258 ± 0.15 |
| R53N | 0.172 ± 0.15 |
| R53S | 0.133 ± 0.086 |
| V42N | -0.02 ± 0.14 |
| V42F | -0.47 ± 0.17 |
| V42P | -0.932 ± 0.16 |
| V42C | -0.021 ± 0.12 |
| V42R | -0.44 ± 0.091 |
| Q44R | -0.331 ± 0.094 |
| Q44L | -0.347 ± 0.082 |
| Q44G | 0.023 ± 0.091 |
| K40W | 0.212 ± 0.11 |
| K40A | 0.144 ± 0.08 |

| Variant | abundance fitness |
| --- | --- |
| K40H | -0.049 ± 0.16 |
| I13H | 0.067 ± 0.18 |
| I13A | -0.079 ± 0.098 |
| I13R | -0.123 ± 0.082 |
| A52W | -0.335 ± 0.097 |
| A52E | 0.291 ± 0.12 |
| R55F | 0.004 ± 0.18 |
| R55A | 0.239 ± 0.086 |
| R55K | 0.496 ± 0.27 |
| R55Y | 0.113 ± 0.14 |
| K27D | 0.229 ± 0.15 |
| K27T | 0.036 ± 0.093 |
| Q16V | 0.357 ± 0.08 |
| Q16R | -0.174 ± 0.082 |
| Q16F | 0.042 ± 0.22 |
| R41I | 0.544 ± 0.18 |
| R41P | -0.144 ± 0.23 |
| A33N | -0.906 ± 0.11 |
| A33V | -0.492 ± 0.084 |
| E54H | -0.229 ± 0.084 |
| E54F | -0.167 ± 0.088 |

| Variant | abundance fitness |
| --- | --- |
| R51V | -0.155 ± 0.076 |
| R51S | 0.024 ± 0.093 |
| R51K | 0.112 ± 0.11 |
| R51A | 0.13 ± 0.076 |
| L29G | -0.683 ± 0.092 |
| L29D | -0.805 ± 0.15 |
| E9M | -0.272 ± 0.1 |
| E9L | -0.31 ± 0.069 |
| E9F | -0.495 ± 0.077 |
| V45H | -0.001 ± 0.15 |
| V45A | -0.365 ± 0.096 |
| V45E | 0.452 ± 0.097 |
| V45S | -0.359 ± 0.097 |
| E35Y | -0.556 ± 0.14 |
| N23A | -0.23 ± 0.13 |
| I6L | 0.051 ± 0.072 |
| I6Y | 0.035 ± 0.081 |
| I6N | -0.702 ± 0.091 |
| L20F | -0.111 ± 0.13 |
| L20T | -0.057 ± 0.11 |
| L20A | -0.211 ± 0.096 |

| Variant | abundance fitness |
| --- | --- |
| L20G | -0.049 ± 0.086 |
| R26Y | -0.031 ± 0.2 |
| R26C | 0.306 ± 0.1 |
| R26K | 0.123 ± 0.12 |
| R26H | 0.324 ± 0.16 |
| R26V | 0.383 ± 0.078 |
| L11F | -0.341 ± 0.14 |
| L11K | -0.143 ± 0.12 |
| N49W | -0.68 ± 0.12 |
| N49K | 0.011 ± 0.12 |
| D21E | -0.008 ± 0.14 |
| D21P | -0.604 ± 0.15 |
| D21L | -0.553 ± 0.11 |
| L19Y | -0.339 ± 0.16 |
| L19D | -0.211 ± 0.13 |
| L19M | 0.039 ± 0.13 |
| L19F | -0.36 ± 0.15 |
| L19R | -0.087 ± 0.078 |
| K39T | 0.373 ± 0.11 |
| K39L | -0.324 ± 0.1 |
| K17F | 0.528 ± 0.31 |
